Numbering of substitutions follows the chain as printed.

From patent publication US20200055939A1 (Genentech, published 2020) come the findings set out here.

Holding throughout (assay): SPR, Fab over captured MICA*008.mIgG2a Ala variant; KD relative to wild type
One experiment addresses T1, G275A.
T1 construct: % monomer 98.9; also called MICA*008.mIgG2a G275A
T1 chain: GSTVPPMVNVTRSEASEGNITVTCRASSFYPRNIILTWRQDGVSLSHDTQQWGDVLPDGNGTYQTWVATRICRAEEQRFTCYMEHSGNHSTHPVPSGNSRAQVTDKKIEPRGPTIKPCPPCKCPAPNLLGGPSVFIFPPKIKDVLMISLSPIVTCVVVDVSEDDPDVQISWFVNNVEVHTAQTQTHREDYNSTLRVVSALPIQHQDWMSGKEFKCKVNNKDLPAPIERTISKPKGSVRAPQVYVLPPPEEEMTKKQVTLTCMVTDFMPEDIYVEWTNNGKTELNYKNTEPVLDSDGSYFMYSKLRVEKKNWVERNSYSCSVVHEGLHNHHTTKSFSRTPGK

For another experiment, the target named is T2, Y283A.
T2 construct: % monomer 92.7; also called MICA*008.mIgG2a Y283A
T2 chain: T1 chain with A74G, Y82A

The target of a further experiment is T3, R240A.
T3 construct: % monomer 93.8; also called MICA*008.mIgG2a R240A
T3 chain: T1 chain with R39A, A74G

Another experiment concerns the target T4, T250A.
T4 construct: % monomer 91.61; also called MICA*008.mIgG2a T250A
T4 chain: T1 chain with T49A, A74G

In the next experiment the target is T5, Q278A.
T5 construct: % monomer 92.32; also called MICA*008.mIgG2a Q278A
T5 chain: T1 chain with A74G, Q77A

The target of a further experiment is T6, V244A.
T6 construct: % monomer 97.6; also called MICA*008.mIgG2a V244A
T6 chain: T1 chain with V43A, A74G

B1: 6F8.7 Fab (Fab, V domains shown)
VH: DVQLQGSGPGLVKPSQSLSLTCSVTGYSITNDYYWNWIRQFPGNKLEWMGFISFGGSNNYNPSLKNRISITRDTSKNQFFLKLSSVTTEDTATYYCARYDGRGAWFAYWAQGTLVTVSA
VL: DIQMTQSPASLSASVGETVTITCRASGNIHNYLAWYQQKQGKSPQLLVYDAITLADGVPSRFSGSGSGTQYSLKINSLQPEDFGNYYCQHFWSFPLTFGAGTKVEIK
As for B1, the fold-decrease in affinity in the experiment with G275A came to 4.6; with Y283A, 1.7; with R240A it was 4.5; with T250A, 0.5; in the experiment with Q278A it was 0.5.

B2: 7D4.6 Fab (Fab, V domains shown)
VH: DVQLQESGPGLVKPSQSLSLTCTVTGYSITSDYAWNWIRQFPRNKLEWMGYINYSGTTNYNPSLKSRISITRDTSKNQFFLQLISVTTEDTATYYCSYYRYDGAWFPYWGQGTLVTVSA
VL: B1 VL with D50N, T53M, G64A, N85S
With B2, the fold-decrease in affinity with T250A is 0.6; in the experiment with Q278A, 4.9.

B3: 1D5 Fab (Fab, V domains shown)
VH: EIQLQQSGPELVKPGASVKVSCKASGYAFTSQNIYWVKQSHGKSLEWIGYIEPYNVVPMYNPKFKGKATLTVDKSSSSAYIHLNSLTSEDSAIYYCARSGSSNFDYWGQGTTLTVSS
VL: EIILTQSPTTMAASPGEKITITCSASSSISSHYLHWYQQKSGFSPKLLIYRTSNLASGVPARFSGSGSGTSYSLTIGTMEAEDVATYYCQQGSSLPLTFGAGTKVEIK
notes: Expressed in E. coli as chimera of murine variable and human constant domains; not shown: human IgG1 CH1 constant domain; human kappa CL constant domain
As to B3, the fold-decrease in affinity with T250A was determined as 8.8; with Q278A, 0.7.

B4: 2E5.2.3 Fab (Fab, V domains shown)
VH: QGQMQQSGAELVKPGASVKLSCKTSGFTFSDNYISWLKQKPGQSLEWIAWIYAGTGGTSYNQKFTAKAQLTVDTSSSTAYMQFSSLTTEDSAIYYCARHDYYGTSGAWFAYWGQGTLVTVSA
VL: DVLMTQTPLSLPVSLGDQASLSCRSSQNIVHINGNTYLEWYLQKPGQSPKLLIYKVSNRFSGVPDRFSGSGSGTDFTLKISRVEAEDLGVYYCFQGSHVPWTFGGGTKVEIK
B4: the fold-decrease in affinity with G275A came to 1; with Y283A, 0.2; with R240A, 1; with T250A, 1.2; with Q278A, 1; with V244A it was 1.
